Measured values from patent US11542537B2, “High-purity steviol glycosides” (PureCircle Sdn Bhd, priority 2012, dated 2023).

What was measured:
Type in all cases: biochemical
[1] = Conversion of Rebaudioside E to Rebaudioside D with UGT76G1 lysate; settings: 500 μL UGT76G1 thawed lysate, 0.5 mM Rebaudioside E, 30° C., pH 7.5
Description: The total volume of the reaction was 5.0 mL with the following composition: 100 mM potassium phosphate buffer pH 7.5, 3 mM MgCl2, 2.5 mM UDP-glucose, 0.5 mM Rebaudioside E and 500 μL of UGT76G1 thawed lysate (UGT76G1 gene was cloned in pET30a+ vector and expressed in E. coli BL21 (DE3)). The reactions were run at 30° C. on an orbitary shaker at 135 rpm. For sampling 300 μL of the reaction mixture was quenched with 30 μL of 2N H2SO4 and 270 μL of methanol/water (6/4). The samples were immediately centrifuged and kept at 10° C. before analysis by HPLC (CAD detection).

[2] = UGT76G1 lysate activity test, Stevioside to Rebaudioside A (HPLC); settings: in-vivo produced UGT76G1 thawed lysate, 0.5 mM Stevioside, 30° C.
Description: The total volume of the reaction was 5.0 mL with the following composition: 50 mM sodium phosphate buffer pH 7.2, 3 mM MgCl2, 2.5 mM UDP-glucose, 0.5 mM Stevioside and 500 μL of UGT76G1 thawed lysate. The reactions were run at 30° C. on an orbitary shaker at 135 rpm. For each sample, 460 μL of the reaction mixture was quenched with 40 μL of 2N H2SO4 and 420 μL of methanol/water (6/4). The samples were immediately centrifuged and kept at 10° C. before analysis by HPLC (CAD).
(§1) Activity tests were performed on a 5 mL scale with 500 μL of thawed lysate for the transformation of Stevioside to Rebaudioside A and Rebaudioside D to Rebaudioside M using 0.5 mM of substrate, 2.5 mM of UDP-Glucose and 3 mM MgCl2 in 50 mM Sodium Phosphate buffer at pH 7.2. Samples were taken and analyzed by HPLC.

[3] = UGT76G1 activity test, Rebaudioside D to Rebaudioside M (HPLC); settings: in-vitro produced UGT76G1, 0.5 mM Rebaudioside D, after 120 h
Description: The total volume of the reaction was 2 mL with the following composition: 50 mM sodium phosphate buffer pH 7.2, 3 mM MgCl2, 3.8 mM UDP-glucose, 0.5 mM Rebaudioside D and 180 μL of in-vitro produced UGT76G1. The reactions were run at 30° C. on an orbitary shaker at 135 rpm. For each sample, 400 μL of reaction mixture was quenched with 40 μL of 2N H2SO4 and 360 μL of 60% MeOH. After centrifugation, the supernatant was analyzed by HPLC (CAD).
as §1
5 mL of the lysate of Example 12 was used to transform Rebaudioside D to Rebaudioside M on a 50 mL scale. The reaction medium consisted of 50 mM Sodium Phosphate buffer pH 7.2, 3 mM of MgCl2, 2.5 mM of UDP-Glucose and 0.5 mM of Rebaudioside D. After allowing the reaction to be shaken at 30° C. for 90 h. 50 mL of ethanol was added and the resulting mixture was allowed to stir at −20° C. for 1 h. After centrifugation at 5000 g for 10 min. the supernatant was purified via ultrafiltration (Vivaflow MWCO 30000). […]

[4] = LC-MS of Rebaudioside A reaction mixtures of GI No. 460409128 (Example 23); settings: for Steviol glycoside conversion in reaction mixture: Reb A: remaining substrate
Description: The reaction mixtures representing GI No. 460409128, particularly the sample “12400 S115N05A7 T24h 130627ABA” of EXAMPLE 20 (hereinafter S115N05A7), and the sample “12400 S129N04 T45h 130712ABA” of EXAMPLE 22 (hereinafter S129N04) were additionally assayed by LC-MS to identify the unknown glycosides. An Agilent 1200 series HPLC system, equipped with binary pump (G1312B), autosampler (G1367D), thermostatted column compartment (G1316B), DAD detector (G1315C), connected with Agilent 6110A MSD, and interfaced with “LC/MSD Chemstation” software, was used.

[5] = Catalytic test of in-vitro expressed UDP-glucosyltransferases, Rebaudioside A to Rebaudioside D (HPLC CAD); settings: 0.5 mM Rebaudioside A, 30° C., T24h sample
Description: 18 μL of plasmid solution (containing approximately 1.5 μg of plasmid) was used for in-vitro expression according to the Promega S30 T7 High-Yield Protein Expression System (ref: L1110) kit. The expression medium was produced as follows:
The prepared expression medium mix was added to the plasmid solution and the solution was allowed to incubate at 30° C. for 3 hours while mixing the mixture every 45 minutes. 5 μL of the mixture was frozen whereas the remainder was used for the catalytic test for the conversion of Rebaudioside A to Rebaudioside D.
(§2) 430 μL of a reaction mixture containing 0.5 mM Rebaudioside A, 3 mM MgCl2, 50 mM phosphate buffer (pH7.2) and 2.5 mM UDP-glucose was added to a 1.5 mL sterile microtube. 52 μL of the enzyme expression medium was added and the resulting mixture was allowed to react at 30° C. for 24 hours. 125 μL samples were taken after 2 hours, 16 hours and 24 hours and added to a 115 μL of 60% methanol and 10 μL of 2 N H2SO4. The quenched sample was centrifuged at 18,000 g for 2 minutes at RT. 200 μL was transferred to an HPLC vial and analyzed.
The HPLC assay was performed as follows:
as §2, with “RT.” for “RT. 200 μL was transferred to an HPLC vial and analyzed.”
The HPLC assay was performed as described in EXAMPLE 20.

[6] = LCMS of Rubusoside conversion products with UGTSL, UGTSL2, UGTLB; settings: UGTSL2 2 hrs, UGTLB 5 hrs, UGTSL 45 hrs
Description: (§3) Conversion of stevioside with UGTSL and UGTSL2 was conducted in similar manner to Example 28, and the conversion of rubusoside with UGTSL and UGTSL2 was conducted similarly to Example 29. Conversions of rubusoside and stevioside with UGTLB was conducted similarly to Example 32.
(§4) The reaction mixtures were analyzed by LCMS to determine all reaction products.

[7] = Activity for Rubusoside to Rebaudioside E conversion (UGTSL, UGTSL2, UGTLB lysates); settings: based on initial concentration of Rubusoside; reaction time 45 h. (UGTSL), 2 h. (UGTSL2)
Description: Activity tests were performed at 3 mL scale with 600 μL of lysate for the transformation of Rubusoside using 0.5 mM of substrate, 2.5 mM of UDP-Glucose and 3 mM MgCl2 in 50 mM Sodium Phosphate buffer at pH 7.2. The HPLC assay was performed as described in EXAMPLE 20.
Activity tests were performed at 3 mL scale with 600 μL of lysate for the transformation of Rubusoside using 0.5 mM of substrate, 2.5 mM of UDP-Glucose and 3 mM MgCl2 in 50 mM Sodium Phosphate buffer at pH 7.2. Samples were taken and analyzed by HPLC. The corresponding chromatogram is depicted in FIG. 65.

[8] = LCMS of Stevioside conversion products with UGTSL, UGTSL2, UGTLB; settings: UGTSL2 2 hrs, UGTLB 2 hrs, UGTSL 22 hrs
Description: as §3, §4

[9] = Catalytic reaction with in-vitro produced UGT91D2, Rebaudioside A to Rebaudioside D; settings: in-vitro produced UGT91D2, 0.1 mM Rebaudioside A, after 120 h
Description: The total volume of the reaction was 0.5 mL with the following composition: 50 mM sodium phosphate buffer pH 7.2, 3 mM MgCl2, 3.8 mM UDP-glucose, 0.1 mM Rebaudioside A and 180 μL of in-vitro produced UGT91D2. The reactions were run at 30° C. on an orbitary shaker at 135 rpm. For each sample, 450 μL of reaction mixture was quenched with 45 μL of 2N H2SO4 and 405 μL of 60% MeOH. After centrifugation, the supernatant was analyzed by HPLC (CAD). HPLC indicated a 4.7% conversion of rebaudioside A to rebaudioside D after 120 h.

B1: UGT76G1: UDP-glucosyltransferase of Stevia rebaudiana, Genbank AAR06912.1, produced in E. coli or in vitro (protein, UniProt Q6VAB4 1-458, looked up)
UDP-glycosyltransferase 76G1: MENKTETTVRRRRRIILFPVPFQGHINPILQLANVLYSKGFSITIFHTNFNKPKTSNYPHFTFRFILDNDPQDERISNLPTHGPLAGMRIPIINEHGADELRRELELLMLASEEDEEVSCLITDALWYFAQSVADSLNLRRLVLMTSSLFNFHAHVSLPQFDELGYLDPDDKTRLEEQASGFPMLKVKDIKSAYSNWQILKEILGKMIKQTKASSGVIWNSFKELEESELETVIREIPAPSFLIPLPKHLTASSSSLLDHDRTVFQWLDQQPPSSVLYVSFGSTSEVDEKDFLEIARGLVDSKQSFLWVVRPGFVKGSTWVEPLPDGFLGERGRIVKWVPQQEVLAHGAIGAFWTHSGWNSTLESVCEGVPMIFSDFGLDQPLNARYMSDVLKVGVYLENGWERGEIANAIRRVMVDEEGEYIRQNARVLKQKADVSLMKGGSSYESLESLVSYISSL
conversion of Rebaudioside E to Rebaudioside D (reaction profile) [1]: complete conversion
conversion of stevioside to rebaudioside A (HPLC) [2]: almost complete conversion
conversion of rebaudioside D to rebaudioside M (HPLC) [3]: 80%

B2: S115N05 A7: UGTSL, Solanum lycopersicum glycosyltransferase, SEQ ID 5; S129N04 is the sample of the in-vivo produced enzyme (protein, listed as Solanum lycopersicum)
chain: MSPKLHKELFFHSLYKKTRSNHTMATLKVLMFPFLAYGHISPYLNVAKKLADRGFLIYFCSTPINLKSTIEKIPEKYADSIHLIELHLPELPQLPPHYHTTNGLPPNLNQVLQKALKMSKPNFSKILQNLKPDLVIYDILQRWAKHVANEQNIPAVKLLTSGAAVFSYFFNVLKKPGVEFPFPGIYLRKIEQVRLSEMMSKSDKEKELEDDDDDDDLLVDGNMQIMLMSTSRTIEAKYIDFCTALTNWKVVPVGPPVQDLITNDVDDMELIDWLGTKDENSTVFVSFGSEYFLSKEDMEEVAFALELSNVNFIWVARFPKGEERNLEDALPKGFLERIGERGRVLDKFAPQPRILNHPSTGGFISHCGWNSAMESIDFGVPIIAMPMHLDQPMNARLIVELGVAVEIVRDDDGKIHRGEIAETLKGVITGKTGEKLRAKVRDISKNLKTIRDEEMDAAAEELIQLCRNGN
Steviol glycoside conversion in reaction mixture: Reb UNK ([4]; Reb UNK later identified as reb D2, listed as S115N05A7): 19.93 % area
Steviol glycoside conversion in reaction mixture: Reb UNK ([4]; Reb UNK later identified as reb D2, listed as S129N04): 21.22 % area
Steviol glycoside conversion in reaction mixture: Reb D ([4]; listed as S115N05A7): 20.35 % area
Steviol glycoside conversion in reaction mixture: Reb D ([4]; listed as S129N04): 23.73 % area
Steviol glycoside conversion in reaction mixture: Reb A ([4]; listed as S115N05A7): 53.24 % area
Steviol glycoside conversion in reaction mixture: Reb A ([4]; listed as S129N04): 49.00 % area
Steviol glycoside conversion in reaction mixture: Unknown@RT3.5 ([4]; unknown later identified as reb M2, listed as S115N05A7): 6.47 % area
Steviol glycoside conversion in reaction mixture: Unknown@RT3.5 ([4]; unknown later identified as reb M2, listed as S129N04): 6.05 % area
Steviol glycoside conversion in reaction mixture: Reb UNK ([5]; Reb UNK later identified as reb D2): 23.3 % area
Steviol glycoside conversion in reaction mixture: Reb A ([5]; remaining substrate): 46.7 % area
LC-MS, peak area ratio (%) Reb D [6]: 3.45%
LC-MS, peak area ratio (%) Reb E [6]: 35.88%
LC-MS, peak area ratio (%) Rub [6]: 7.82%
LC-MS, peak area ratio (%) Stev [6]: 2.37%
LC-MS, peak area ratio (%) Unknown peak #1 (MW804) RT 30.70 min [6]: 20.38%
LC-MS, peak area ratio (%) Unknown peak #2 (MW804) RT 49.50 min [6]: 27.75%
LC-MS, peak area ratio (%) Unknown peak #3 (MW804) RT 50.40 min [6]: 2.35%
Rubusoside conv. (reactiontime) [7]: 70% (45 h.)
LC-MS, peak area ratio (%) Reb D [8]: 0.54%
LC-MS, peak area ratio (%) Reb E [8]: 49.68%
LC-MS, peak area ratio (%) Stev [8]: 25.24%
LC-MS, peak area ratio (%) Unknown peak #1 (MW966) RT = 22.60 min [8]: 3.97%
LC-MS, peak area ratio (%) Unknown peak #2 (MW966) RT = 26.50 min [8]: 20.56%

B3: UGT91D2: UDP-glucosyltransferase, Genbank ACE87855.1, in-vitro produced (protein, UniProt B3VI56 1-473, looked up)
UDP-glycosyltransferase 91D2: MATSDSIVDDRKQLHVATFPWLAFGHILPYLQLSKLIAEKGHKVSFLSTTRNIQRLSSHISPLINVVQLTLPRVQELPEDAEATTDVHPEDIPYLKKASDGLQPEVTRFLEQHSPDWIIYDYTHYWLPSIAASLGISRAHFSVTTPWAIAYMGPSADAMINGSDGRTTVEDLTTPPKWFPFPTKVCWRKHDLARLVPYKAPGISDGYRMGLVLKGSDCLLSKCYHEFGTQWLPLLETLHQVPVVPVGLLPPEVPGDEKDETWVSIKKWLDGKQKGSVVYVALGSEVLVSQTEVVELALGLELSGLPFVWAYRKPKGPAKSDSVELPDGFVERTRDRGLVWTSWAPQLRILSHESVCGFLTHCGSGSIVEGLMFGHPLIMLPIFGDQPLNARLLEDKQVGIEIPRNEEDGCLTKESVARSLRSVVVEKEGEIYKANARELSKIYNDTKVEKEYVSQFVDYLEKNTRAVAIDHES
modifications: in vitro produced
notes: UDP-glucosyltransferase, Genbank ACE87855.1, in-vitro produced
conversion of rebaudioside A to rebaudioside D (HPLC) [9]: 4.7%
